Reference: the RNAGym collection of RNA variant scans (doi:10.7554/elife.80360)

B1: CPEB3 Ribozyme (parent)
chain: GGGGGCCACAGCAGAAGCGUUCACGUCGCGGCCCCUGUCAGAUUCUGGUGAAUCUGCGAAUUCUGCUGU

Variants of: B1
Test: self-cleavage, relative activity (ratio to wild type); higher = more cleavage; co-transcriptional
Work on G25C G65U yielded a self-cleavage of 0.151.
For G25C G65C, the self-cleavage was 0.18.
G25U C45A gave a self-cleavage of 0.181.
Work on G25U C45U yielded a self-cleavage of 0.156.
For G25A G37U, the self-cleavage was 0.199.
G25A G37C showed a self-cleavage of 0.119.
G25A G37A showed a self-cleavage of 0.187.
Variant G25U A51C has a self-cleavage of 0.212.
Work on G25U A51G yielded a self-cleavage of 0.168.
With G25U A51U the self-cleavage was 0.152.
Variant C24U G58U has a self-cleavage of 0.879.
Variant C24U G58C has a self-cleavage of 0.742.
Work on C24U G48A yielded a self-cleavage of 0.815.
C24U G48C showed a self-cleavage of 0.86.
In the case of C24U G48U, the self-cleavage is reported as 0.889.
In the case of G25A U61G, the self-cleavage is reported as 0.219.
G25A U61C showed a self-cleavage of 0.247.
G25U G50U showed a self-cleavage of 0.151.
Work on G25U G50C yielded a self-cleavage of 0.189.
G25U G50A showed a self-cleavage of 0.144.
G25U C39G gave a self-cleavage of 0.124.
For G25U C39U, the self-cleavage was 0.151.
Work on G25A G48A yielded a self-cleavage of 0.208.
In the case of G25A G48U, the self-cleavage is reported as 0.236.
G25C U46G showed a self-cleavage of 0.192.
In the case of G25C U46A, the self-cleavage is reported as 0.18.
G25U G41A gave a self-cleavage of 0.112.
Variant G25U A40C has a self-cleavage of 0.183.
G25U A40U gave a self-cleavage of 0.208.
For G25U A40G, the self-cleavage was 0.114.
With G25C G37C the self-cleavage was 0.156.
G25C G37A showed a self-cleavage of 0.171.
With G25C U55A the self-cleavage was 0.107.
Work on G25C U55C yielded a self-cleavage of 0.107.
For G25C U55G, the self-cleavage was 0.174.
Variant G25C G68U has a self-cleavage of 0.21.
With G25C G68A the self-cleavage was 0.255.
G25C G68C gave a self-cleavage of 0.18.
C24U U44C gave a self-cleavage of 0.633.
With C24U U44A the self-cleavage was 0.687.
With C24U U44G the self-cleavage was 0.703.
Variant C24U G68C has a self-cleavage of 0.928.
Variant C24U G68U has a self-cleavage of 0.96.
With G25A U64A the self-cleavage was 0.19.
G25A U64C showed a self-cleavage of 0.14.
In the case of G25A U64G, the self-cleavage is reported as 0.185.
G25U C29A showed a self-cleavage of 0.198.
For G25U C29G, the self-cleavage was 0.161.
In the case of G25C A42C, the self-cleavage is reported as 0.187.
With G25C A42G the self-cleavage was 0.194.
Work on G25C A42U yielded a self-cleavage of 0.203.
In the case of C24U G50A, the self-cleavage is reported as 0.838.
C24U G50C gave a self-cleavage of 0.795.
For G25C G48U, the self-cleavage was 0.186.
G25C G48A gave a self-cleavage of 0.16.
Variant G25A C29G has a self-cleavage of 0.216.
In the case of G25A C29U, the self-cleavage is reported as 0.163.
For G25A C29A, the self-cleavage was 0.181.
Variant G25U G68C has a self-cleavage of 0.225.
G25U G68U showed a self-cleavage of 0.159.
Variant G25C U38A has a self-cleavage of 0.176.
Work on G25C U38C yielded a self-cleavage of 0.166.
Variant G25C U38G has a self-cleavage of 0.187.
In the case of G25U C66U, the self-cleavage is reported as 0.121.
In the case of G25A C34A, the self-cleavage is reported as 0.196.
With G25A C34U the self-cleavage was 0.185.
In the case of G25U U46A, the self-cleavage is reported as 0.105.
In the case of G25U U46C, the self-cleavage is reported as 0.179.
For G25U U46G, the self-cleavage was 0.205.
G25C C66U gave a self-cleavage of 0.15.
In the case of G25C C66G, the self-cleavage is reported as 0.0932.
In the case of G25C C66A, the self-cleavage is reported as 0.134.
Variant G25C U62G has a self-cleavage of 0.153.
G25C U62A gave a self-cleavage of 0.132.
Work on G25C U62C yielded a self-cleavage of 0.158.
Variant G25C G47A has a self-cleavage of 0.102.
Work on G25C G47C yielded a self-cleavage of 0.142.
In the case of G25C G47U, the self-cleavage is reported as 0.213.
For G25U U36C, the self-cleavage was 0.103.
Work on G25U U36A yielded a self-cleavage of 0.125.
G25C G31U gave a self-cleavage of 0.176.
For G25C G31C, the self-cleavage was 0.143.
Variant G25C A51G has a self-cleavage of 0.203.
G25C A51C showed a self-cleavage of 0.227.
In the case of C24U U46C, the self-cleavage is reported as 0.714.
Work on C24U U46A yielded a self-cleavage of 0.852.
With C24U G37U the self-cleavage was 0.251.
For G25A C32U, the self-cleavage was 0.255.
Variant G25A C32G has a self-cleavage of 0.131.
In the case of G25A G56U, the self-cleavage is reported as 0.2.
G25C U43C showed a self-cleavage of 0.164.
G25C U43G gave a self-cleavage of 0.188.
With G25C C39U the self-cleavage was 0.192.
Work on G25C C39A yielded a self-cleavage of 0.197.
With G25C C39G the self-cleavage was 0.164.
C24U U43G showed a self-cleavage of 0.418.
C24U U43C gave a self-cleavage of 0.691.
Variant C24U U43A has a self-cleavage of 0.679.
Variant U26A A51U has a self-cleavage of 0.813.
For G25U C54U, the self-cleavage was 0.121.
With G25U C54G the self-cleavage was 0.115.
G25U C54A showed a self-cleavage of 0.125.
Work on G25U C35G yielded a self-cleavage of 0.165.
Work on G25U C35A yielded a self-cleavage of 0.155.
For C24U U53C, the self-cleavage was 0.53.
U26A A42G gave a self-cleavage of 0.72.
With U26A A42C the self-cleavage was 0.797.
C24U U69G gave a self-cleavage of 0.909.
Work on C24U U69A yielded a self-cleavage of 0.895.
With G25A C39A the self-cleavage was 0.237.
G25A C39G showed a self-cleavage of 0.16.
G25A C39U gave a self-cleavage of 0.229.
For G25C C27U, the self-cleavage was 0.172.
In the case of G25C C27G, the self-cleavage is reported as 0.225.
With G25A C45A the self-cleavage was 0.208.
In the case of G25U U44A, the self-cleavage is reported as 0.136.
Work on G25U U44C yielded a self-cleavage of 0.105.
Variant G25U U44G has a self-cleavage of 0.146.
In the case of G25A C66A, the self-cleavage is reported as 0.196.
G25A C66U gave a self-cleavage of 0.244.
For G25A U38C, the self-cleavage was 0.123.
Work on G25A U38G yielded a self-cleavage of 0.153.
In the case of G25A U38A, the self-cleavage is reported as 0.149.
G25U A59U gave a self-cleavage of 0.199.
G25U A59C showed a self-cleavage of 0.217.
G25A A52U showed a self-cleavage of 0.213.
G25A A52G gave a self-cleavage of 0.193.
G25A A52C showed a self-cleavage of 0.253.
With C24U U36G the self-cleavage was 0.182.
Work on G25A U69A yielded a self-cleavage of 0.295.
G25A U69C showed a self-cleavage of 0.36.
Work on G25U yielded a self-cleavage of 0.172.
G25C showed a self-cleavage of 0.17.
Work on G25A yielded a self-cleavage of 0.202.
G25A C27A gave a self-cleavage of 0.162.
With G25A C27U the self-cleavage was 0.169.
Work on G25A C27G yielded a self-cleavage of 0.208.
Work on G25A U26G yielded a self-cleavage of 0.148.
For G25A U26C, the self-cleavage was 0.297.
Work on G25A G31U yielded a self-cleavage of 0.197.
In the case of G25A G31C, the self-cleavage is reported as 0.147.
With G25A G31A the self-cleavage was 0.219.
In the case of G25U G37C, the self-cleavage is reported as 0.0933.
In the case of C24U U62A, the self-cleavage is reported as 0.441.
With C24U U62C the self-cleavage was 0.505.
G25C G30A showed a self-cleavage of 0.25.
Variant G25C G30C has a self-cleavage of 0.171.
In the case of G25C G30U, the self-cleavage is reported as 0.193.
In the case of G25C G58C, the self-cleavage is reported as 0.234.
For G25C U61G, the self-cleavage was 0.176.
With G25C C32A the self-cleavage was 0.147.
For G25C C32G, the self-cleavage was 0.173.
G25A C35G showed a self-cleavage of 0.18.
With G25A C35U the self-cleavage was 0.152.
For G25C C54A, the self-cleavage was 0.136.
Variant G25C C54G has a self-cleavage of 0.162.
G25C C54U gave a self-cleavage of 0.133.
Work on G25U U26A yielded a self-cleavage of 0.273.
Work on G25U U26C yielded a self-cleavage of 0.631.
Variant G25A G65A has a self-cleavage of 0.189.
G25U G30C showed a self-cleavage of 0.14.
With G25U G30A the self-cleavage was 0.16.
G25C C29G showed a self-cleavage of 0.148.
Work on G25C C29U yielded a self-cleavage of 0.126.
For G25A U43G, the self-cleavage was 0.119.
For G25A U43A, the self-cleavage was 0.154.
Work on G25A U43C yielded a self-cleavage of 0.288.
